Experiment: yeast display, Sf9 membrane polyspecificity reagent, FACS + sequencing; frameworks hold sequencing errors
In short: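 Galactose induction of a Saccharomyces cerevisiae BJ5465 synthetic nanobody display library ran 36–48 hours. The cells were then stained for 1 hour at 4 °C with 10% biotinylated, detergent-solubilized Sf9 membrane reagent, pulled down on streptavidin microbeads and FACS-sorted into low and high (top ~1%) gates on expression and reagent-binding fluorescence. Labels for polyreactivity follow the gate of origin.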

Sequence	polyreactivity (PSR sort gate)
QVQLVESGGCLVQAGGSLRLSCAASGSTFAEYVMGWDRQAPGKERELVAAISSGTSTYYADSVKGRFTISRDNAKNTVYLQMNSLKPEDTAVYYCNADLYHNWYKPEYDYCGQGTQVTVSS	low polyreactivity
QVQLVESGGCLVQAGGSLRLSCAASGSTFGGNAMGWYRQAPGKERELVAAITIGGRTNYADSVKGRFTISRDNAKNTVYLQMNSLKPEDTAVYYCAKDRDQWQDYWGQGSQVTVSS	low polyreactivity
QVQLVESGGCLVQAGGSLRLSCAASGSTFIINAMGWYIQAPGKERVLVAANTSTGGTNYADSVKGRFTISRDNAKNTVYLQMNSLKPEATAVYYCAARYYQDGYDYWGQGTQGTVSS	high polyreactivity
QVQLVESGGCLVQAGGSLRLSCAASGSTFKIYAMGWYRQAPWKERELVAAISWRGGRTYYADSVKGRFTISRDNAKNTVYLQMNSLKPEDTAVYYCDKGTRQGLEFWGQGTQVTVSS	high polyreactivity
QVQLVESGGCLVQAGGSLRLSCAASGSTFLKYTMGWYRQAPGKERELVAAITASGGRTYYADSVKGRFTISRDNAKITVYLQMNSLKPEDTAVYYCAARGFDRYYWGQGTQVTVSS	high polyreactivity
QVQLVESGGCLVQAGGSLRLSCAASGSTFLSYAMGWYRQAPGKERELVAAISYSAGSTYYADSVKGRFTISRDNAKNTVYLQMNSLKPEDTAVYYCAAYDYSERRYDYWGQGTQVTVSS	low polyreactivity
QVQLVESGGCLVQAGGSLRLSCAASGSTFPVYSMGWYRQAPGKERELVAAISYSGGSTNYADSVKGRFTISRDNAKNTVYLQMNSLKPEDTAVYYFAADTESHHEGNYWGQGTQVTVSS	low polyreactivity
QVQLVESGGCLVQAGGSLRLSCAASGSTFSRYAMGWYRQAPGKERELVAAISWGGNTYYADSVKGRFTISRDNAKNTVYLQMNSLKPEDTAGYYCNADYSSRGANYDYWGQGTQVTVSS	high polyreactivity
QVQLVESGGCLVQAGGSLRLSCAASGSTFTIYVMGGYRQAPGKERELVAAITWSDGITYYADSVKGRFTISRDNAKNTVYLQMNSLKPEDTAVYYCRDSHPSYRPGTVRYDYWGQGTQVNVSS	low polyreactivity
QVQLVESGGCLVQAGGSLRLSCAASGSTFTYNAMGGYRQAPGKERELVAGISWRGGRTYYADSVKGRFTISRDTAKNTVYLQMNSLKPEDTAVYYCNARLWGTHYEYARMYYWGQGTQVTVSS	low polyreactivity
QVQLVESGGCLVQAGGSLRLSCAASGSTFTYNAMGWYRQAPGKERELVAAISRTANANYADSVKGRFTISRDNAKNTVYLQMNSLKPEDTAVYYCADDFLDSKVHVRFGYWGKGTQVTVSS	low polyreactivity
QVQLVESGGCLVQAGGSLRLSCAASGSTFWWNTMGWYRQAPGKERELVADIRTSGGGTYYADSVKGRFTISRDNAKNTVYLQMNSLKPEDTAVYYCNADPKWEMGSWGQGTQVTVSS	low polyreactivity
QVQLVESGGCLVQAGGSLRLSCAASGSTINSYAMGCYRQAPGKERELVAAITWIGGNTYYADSVKGRFTISRDNSKNTVYLQMTSLKPEDTAVYYCGADEYFEYYYWGQGTQVTVSS	low polyreactivity
QVQLVESGGCLVQAGGSLRLSCAASGSTLWGYAMGWYRQAPGKERELVAAITSSGGITYYADSVKGRFTISRDNAKNTVYFQMNSLKPEDTAVYFCAVDYYVVGWTYLYYYWGQGTQVTVSS	low polyreactivity
QVQLVESGGCLVQAGGSLRLSCAASGYTFLYNAMGWYRQAPGKERELVATNTRGGSTNYADSVKGRFTISRDNAKNTVYLQMYSLKPEDTAVYYCNKEAAPLGFVPSYYGRDYWGHGTQVTVSS	low polyreactivity
QVQLVESGGCLVQAGGSLRLSCAASRITFRWYAMGWYRQAPGKDRELVAAISRSGASTYYADSVKGRFTISRDNAKNTVYLQMNSLKPEDTAVYYCAKEKTTYYWATYDYWGQGTQVTVSS	high polyreactivity
QVQLVESGGCLVQAGGSLRLSCAASVRIFQIYAMGWYRQAPGKERELVATISSGTRTYYADSVKGRFTMSRDNAKNTVYLQMNSLKPEDTAVYYCAKTYATRHAYWAGTRYEDDYWGQGTQVTVSS	high polyreactivity
QVQLVESGGCLVQAGGSLRLSCAPSGLTMHYYAMGWYRQAPATERELVAAITYSCGSTYYADSVKGRFTISLDNAKNTVYLQMNILKAEDTAVYYCAADTFPTTSEVDYWGQGTQVTVSS	low polyreactivity
QVQLVESGGCLVQAGGSLRLSCASSGFTFDIYAMGWYRQAPGKERELVATISFTGDTTSYADSGKGRFTISRDNAKNTVYLQMNSLKPEDTAVYYCAADGSYPLSVGRENLHYAEFDYWGKGTQVTVSS	low polyreactivity
QVQLVESGGCLVQAGGSLRLSCASSGSTFTHYAMGWYIQSPGKERELVAAISSGGSTYYADSVKGRFTISRDNAKNTVYLQMNSLKPEDTAVYYCAADYYLHDWWYPHDYWGQGTQVTVSS	low polyreactivity
QVQLVESGGCLVQAGGSLRLSCDASGIIFRGNAMGWYRHAPGTERELVAAISSAGSTNYSDSVKGRFTISRDNAKNTVYLQMNSLKPEDTAVYYCAKGSIKYHVTLRGRGYYWGQGTQVTVSS	low polyreactivity
QVQLVESGGCLVQAGGSLRLSCDASGSTFPYYAMGWYRQAPGKERELVAAITLSGSSTYYTDSVKGRFTISRDNAKNTVYLQMNSLKPEDTAVYYCATRRVQWGYRYSYWRQGTQVTVSS	high polyreactivity
QVQLVESGGCLVQAGGSLRLSCSASGLTFRYYAMGWYRQAPGKESELVAAITRRGSTYYADSVKGRFTISRDIAKNTVYLQMNSLKPEDSAVYYCATVTGFHSSPLRDLDYWGQGTLVTVSS	high polyreactivity
QVQLVESGGCLVQAGGSLRLSSAASGFTFRRYTMGWYRQAPGKVRELVAAISRSGGSTFYADSVKGRFTISRDNAKNTVYLQLNSLKPEDSAVYYCNAGRTYTALNGDYWGHGTQVTVSS	high polyreactivity
QVQLVESGGCLVQAGGSLRLSSAASGRTFDHYAMGWYRQAPGKERELDAAITSGGSTYYADSVKGRFTISRDNAKNTVYLQMNSLKPEDTAVYYCNKDSSFWGSYIAQVNERDYWGQGTQVTVSS	low polyreactivity
QVQLVESGGCLVQAGGSLRLTCAASGFTFVYNAMGWYRQDPGKERELVARISVSGGSTYYADSVKGRFTISRDNAKNTVYLQMNSLKPEDTSVYYCAAELSAPQPDYQLKVDYYYWGQGTQVTVSS	low polyreactivity
QVQLVESGGCLVQAGGSLSLSCAASGFIFDHNAMGWYRQAPGKERELVAAITWRGDSTYYADSVKGRFTISRDTAKNSVYVQMNSLKPEDTAVYYCNADAILVYYGKLDYWGQGTQVTVSS	low polyreactivity
QVQLVESGGCLVQAGGSRRLSWAASGRIFDTYTMGWYRQAPGKERELVAAITSGGSTYYADSVKGRFTISRDNAMNTVYLQMNSLKPEDTAVYYCAARYRSIIRYYYWGQGTQVTVSS	high polyreactivity
QVQLVESGGCLVQARGSLRLSCASSGFIFQAYAIGWYRHRPGKERELVASISYSGSRTYYADSVKGRFTISRDNAKNTVYLQMNSLKPADTAVYYCAAGPRYWYPWFGRDYEYWGQGTQVTVSS	high polyreactivity
QVQLVESGGCLVQSGGSLRLSCAASGSTFRGYAMGWYRQAPGKEREFVAAISKGGASTYYADSVKGRFTISRDNAMNTVYLQMNSLKPEDTAVYYCAKGAYRRAYGTYYYWGQGTQVTVSS	high polyreactivity

Reference: the nanobody polyreactivity screen of Harvey et al. (2022)
